Results on 8 substances are retold here after patent WO1994029351A2.

For experiment [1], the target named is Purified human C1q (Sigma UK) (human) (UniProt P02745). Kind of experiment: cell-based or functional assay.
For experiment [2], the target named is guinea pig complement (serum). Description: cell-based or functional assay.
Experiment [3] concerns the target FcγRI on IFNγ stimulated U937 cells (UniProt P12314). Description: 50% inhibition of binding of FITC-labelled mouse lgG2a antibody to U937 cells, FACS.
The target of experiment [4] is FcγRIII on human peripheral blood mononuclear effector cells (human) (UniProt P08637). Description: cell-based or functional assay.
Sequence of FcγRIII on human peripheral blood mononuclear effector cells (human) (P08637 17-254): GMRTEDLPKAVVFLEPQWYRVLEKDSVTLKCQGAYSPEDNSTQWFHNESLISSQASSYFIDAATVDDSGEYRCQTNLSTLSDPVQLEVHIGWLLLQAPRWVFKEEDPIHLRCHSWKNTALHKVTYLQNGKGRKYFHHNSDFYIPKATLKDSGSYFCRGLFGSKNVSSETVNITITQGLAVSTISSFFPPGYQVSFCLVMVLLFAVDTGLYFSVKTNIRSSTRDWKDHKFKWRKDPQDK

Sequence of Purified human C1q (Sigma UK) (human) (P02745 23-245 limits assumed, chain 1 of 3): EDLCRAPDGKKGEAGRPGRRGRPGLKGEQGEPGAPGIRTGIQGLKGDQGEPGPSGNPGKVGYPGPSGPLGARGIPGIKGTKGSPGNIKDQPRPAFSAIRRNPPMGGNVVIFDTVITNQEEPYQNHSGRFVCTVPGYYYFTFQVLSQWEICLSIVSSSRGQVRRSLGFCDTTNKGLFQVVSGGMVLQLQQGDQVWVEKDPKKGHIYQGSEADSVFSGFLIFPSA
Sequence of Purified human C1q (Sigma UK) (human) (P02746 28-253 limits assumed, chain 2 of 3, further chain): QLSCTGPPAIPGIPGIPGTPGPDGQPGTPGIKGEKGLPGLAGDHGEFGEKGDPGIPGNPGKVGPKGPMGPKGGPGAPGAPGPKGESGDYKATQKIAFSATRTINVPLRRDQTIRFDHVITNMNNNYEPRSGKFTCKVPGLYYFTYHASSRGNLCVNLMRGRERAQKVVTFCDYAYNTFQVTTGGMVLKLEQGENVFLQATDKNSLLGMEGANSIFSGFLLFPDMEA
Sequence of Purified human C1q (Sigma UK) (human) (P02747 29-245 limits assumed, chain 3 of 3, further chain): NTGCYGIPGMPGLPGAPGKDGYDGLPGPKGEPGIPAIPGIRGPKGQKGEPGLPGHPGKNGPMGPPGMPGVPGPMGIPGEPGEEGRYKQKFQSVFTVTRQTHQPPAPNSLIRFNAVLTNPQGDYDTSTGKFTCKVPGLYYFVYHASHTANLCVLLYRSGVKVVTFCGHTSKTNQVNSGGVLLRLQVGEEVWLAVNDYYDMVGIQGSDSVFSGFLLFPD
Sequence of FcγRI on IFNγ stimulated U937 cells (P12314 16-374 limits assumed): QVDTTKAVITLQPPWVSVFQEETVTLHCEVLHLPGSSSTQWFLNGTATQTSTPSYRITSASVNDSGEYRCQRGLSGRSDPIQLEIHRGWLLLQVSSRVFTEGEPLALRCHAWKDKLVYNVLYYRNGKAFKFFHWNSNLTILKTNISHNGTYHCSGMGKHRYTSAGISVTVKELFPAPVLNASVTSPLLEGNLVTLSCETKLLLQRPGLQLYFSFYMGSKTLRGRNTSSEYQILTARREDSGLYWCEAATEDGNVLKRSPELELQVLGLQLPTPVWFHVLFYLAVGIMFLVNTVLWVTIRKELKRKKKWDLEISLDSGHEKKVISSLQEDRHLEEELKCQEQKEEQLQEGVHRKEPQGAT

As to “chimeric L243 G1[G237A] (from UniProt P01857 1-330; P01834 1-107) (antibody)”, in experiment [1], the mg/ml antibody necessary for half maximal cell killing by human complement came out at 2 mg/mL and the percent plateau cell killing by human complement was 20%.
In general, IC50 refers to the concentration that gives 50% inhibition. The low end stands for inhibition by little substance, the high end for a need for much substance. In experiment [1], “chimeric L243 human lgG1 wild type (from UniProt P01857 1-330; P01834 1-107) (antibody)” showed a maximum cell killing by human complement of 64%, a mg/ml antibody necessary for half maximal cell killing by human complement of 0.6 mg/mL and a percent plateau cell killing by human complement of 65%. The substance also returned a plateau level killing with guinea pig complement in experiment [2] of 80%. Further, in experiment [3], the IC50 came out at 130 µg/mL.
In turn, “chimeric L243 human lgG2 (from UniProt P01859 1-326; P01834 1-107) (antibody)” showed a ng/ml antibody necessary for half maximal cell killing in ADCC in experiment [4] of over 100000 ng/mL. Also, in experiment [1], the mg/ml antibody necessary for half maximal cell killing by human complement was over 20 mg/mL and the percent plateau cell killing by human complement turned out to be 0%.
For “chimeric L243 G1[K320A] (from UniProt P01857 1-330; P01834 1-107) (antibody)”, in that order: 10 ng/mL, 0.6 mg/mL and 70%.
As for “chimeric L243 G1[L235E] (from UniProt P01857 1-330; P01834 1-107) (antibody)”, in experiment [1], the mg/ml antibody necessary for half maximal cell killing by human complement is over 20 mg/mL and the percent plateau cell killing by human complement was found to be 0%. Besides, the plateau level killing with guinea pig complement in experiment [2] came out at 40%.
The substance “chimeric L243 G1[L235A] (from UniProt P01857 1-330; P01834 1-107) (antibody)” came in with a ng/ml antibody necessary for half maximal cell killing in ADCC in experiment [4] of 9 ng/mL. Besides, in experiment [1], the mg/ml antibody necessary for half maximal cell killing by human complement is over 20 mg/mL and the percent plateau cell killing by human complement came out at 0%. This substance returned a plateau level killing with guinea pig complement in experiment [2] of 49%.
The substance “chimeric L243 G4[L235E] (from UniProt P01861 1-327; P01834 1-107) (antibody)” returned a ng/ml antibody necessary for half maximal cell killing in ADCC in experiment [4] of over 100000 ng/mL. In experiment [1], this substance showed a mg/ml antibody necessary for half maximal cell killing by human complement of over 20 mg/mL and a percent plateau cell killing by human complement of 0%.
Regarding “chimeric L243 human lgG4 (from UniProt P01861 1-327; P01834 1-107) (antibody)”, in experiment [4], the maximum killing in ADCC was determined as 20% and the ng/ml antibody necessary for half maximal cell killing in ADCC (extrapolated value) is 10000 ng/mL. In experiment [1], this substance showed a mg/ml antibody necessary for half maximal cell killing by human complement of over 20 mg/mL and a percent plateau cell killing by human complement of 0%. In addition, the IC50 in experiment [3] amounted to 1200 µg/mL.
